Measurements reported in the supplement of paper PMC9112550, “Optimization of the antimicrobial peptide Bac7 by deep mutational scanning” (BMC Biology, 2022).

test system: Escherichia coli TOP10; test: shrunken log2 fold change of peptide-encoding DNA abundance (4.5 h post-induction vs induction); higher = less antimicrobial activity (less host growth inhibition); conditions: time post-induction: 4.5 h; library: site-saturation at positions 5, 18, 19, 20
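Note: peptides expressed intracellularly from a pBAD plasmid library in pooled LB shake-flask culture, induced with 0.3% L-arabinose, DNA abundance read by NGS, three biological replicates, DESeq2 with apeglm shrinkage.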

Row | Sequence | shrunken log2 fold change
1 | RRIRIRPPRLPRPRPRPHTVPRP | -0.588
2 | RRIRWRPPRLPRPRPRPQMVPRP | 0.0853
3 | RRIRMRPPRLPRPRPRPHSDPRP | 2.6
4 | RRIRRRPPRLPRPRPRPDVWPRP | 0.611
5 | RRIRARPPRLPRPRPRPCLPPRP | 0.0185
6 | RRIRCRPPRLPRPRPRPTDMPRP | -0.16
7 | RRIRFRPPRLPRPRPRPCHKPRP | -0.443
8 | RRIRNRPPRLPRPRPRPTFDPRP | 0.0109
9 | RRIRARPPRLPRPRPRPECMPRP | 1.41
10 | RRIRYRPPRLPRPRPRPYDAPRP | -0.129
11 | RRIRCRPPRLPRPRPRPVSTPRP | -0.104
12 | RRIRNRPPRLPRPRPRPKFPPRP | -0.0759
13 | RRIRPRPPRLPRPRPRPWMIPRP | -0.334
14 | RRIRRRPPRLPRPRPRPPFCPRP | 0.627
15 | RRIRFRPPRLPRPRPRPKLVPRP | 0.147
16 | RRIRCRPPRLPRPRPRPRLHPRP | -0.0571
17 | RRIRVRPPRLPRPRPRPKWRPRP | 0.327
18 | RRIRFRPPRLPRPRPRPFPIPRP | -0.184
19 | RRIRHRPPRLPRPRPRPRALPRP | 0.152
20 | RRIRRRPPRLPRPRPRPIHFPRP | -0.174
21 | RRIRWRPPRLPRPRPRPPWVPRP | -0.00745
22 | RRIRTRPPRLPRPRPRPLKTPRP | -0.0866
23 | RRIRVRPPRLPRPRPRPMGDPRP | -0.104
24 | RRIRNRPPRLPRPRPRPLWNPRP | -0.511
25 | RRIRERPPRLPRPRPRPAGAPRP | 0.464

Row | Sequence | shrunken log2 fold change
26 | RRIRWRPPRLPRPRPRPYRIPRP | -0.209
27 | RRIRIRPPRLPRPRPRPDMRPRP | -0.0655
28 | RRIRIRPPRLPRPRPRPDQLPRP | -0.172
29 | RRIRARPPRLPRPRPRPQTVPRP | 0.129
30 | RRIRVRPPRLPRPRPRPCDGPRP | 0.0303
31 | RRIRYRPPRLPRPRPRPHWHPRP | -0.912
32 | RRIRHRPPRLPRPRPRPLPSPRP | 0.393
33 | RRIRSRPPRLPRPRPRPCHHPRP | -0.179
34 | RRIRGRPPRLPRPRPRPMRKPRP | 1.37
35 | RRIRQRPPRLPRPRPRPFQHPRP | -0.117
36 | RRIRWRPPRLPRPRPRPQEEPRP | 0.0983
37 | RRIRVRPPRLPRPRPRPRTAPRP | 0.287
38 | RRIRFRPPRLPRPRPRPMQDPRP | -0.0947
39 | RRIRCRPPRLPRPRPRPCPPPRP | -0.0764
40 | RRIRTRPPRLPRPRPRPHKGPRP | 0.0731
41 | RRIRRRPPRLPRPRPRPNSPPRP | -0.0118
42 | RRIRNRPPRLPRPRPRPVNLPRP | -0.0237
43 | RRIRQRPPRLPRPRPRPCEFPRP | -0.311
44 | RRIRRRPPRLPRPRPRPNLTPRP | -0.245
45 | RRIRDRPPRLPRPRPRPGYEPRP | -0.0119
46 | RRIRIRPPRLPRPRPRPQCVPRP | -0.0555
47 | RRIRVRPPRLPRPRPRPQYVPRP | -0.262
48 | RRIRCRPPRLPRPRPRPKHCPRP | -0.166
49 | RRIRTRPPRLPRPRPRPVFCPRP | -0.139
50 | RRIRERPPRLPRPRPRPCHEPRP | -0.0789

Row | Sequence | shrunken log2 fold change
51 | RRIRNRPPRLPRPRPRPNHHPRP | -0.701
52 | RRIRFRPPRLPRPRPRPGMMPRP | -0.216
53 | RRIRGRPPRLPRPRPRPLGHPRP | 0.595
54 | RRIRKRPPRLPRPRPRPYWVPRP | -0.306
55 | RRIRQRPPRLPRPRPRPCDGPRP | -0.26
56 | RRIRLRPPRLPRPRPRPMWHPRP | 0.203
57 | RRIRNRPPRLPRPRPRPMFLPRP | -0.241
58 | RRIRLRPPRLPRPRPRPDPRPRP | 0.603
59 | RRIRTRPPRLPRPRPRPNGNPRP | -0.302
60 | RRIRERPPRLPRPRPRPFPCPRP | -0.0816
61 | RRIRKRPPRLPRPRPRPMFYPRP | -0.169
62 | RRIRMRPPRLPRPRPRPRSCPRP | 0.274
63 | RRIRYRPPRLPRPRPRPSMDPRP | -1.85
64 | RRIRERPPRLPRPRPRPQQGPRP | -0.219
65 | RRIRMRPPRLPRPRPRPIAKPRP | 0.494
66 | RRIRWRPPRLPRPRPRPYCCPRP | -0.569
67 | RRIRWRPPRLPRPRPRPNRCPRP | 0.0312
68 | RRIRERPPRLPRPRPRPPWFPRP | 0.0508
69 | RRIRKRPPRLPRPRPRPWPVPRP | 0.47
70 | RRIRSRPPRLPRPRPRPIREPRP | -0.0902
71 | RRIRIRPPRLPRPRPRPVGWPRP | 0.668
72 | RRIRFRPPRLPRPRPRPEFRPRP | -0.0593
73 | RRIRIRPPRLPRPRPRPYIFPRP | -0.425
74 | RRIRMRPPRLPRPRPRPKYHPRP | -0.488
75 | RRIRWRPPRLPRPRPRPLKIPRP | -0.195

Row | Sequence | shrunken log2 fold change
76 | RRIRSRPPRLPRPRPRPNMEPRP | -0.154
77 | RRIRVRPPRLPRPRPRPIRYPRP | 0.146
78 | RRIRHRPPRLPRPRPRPKSMPRP | -0.503
79 | RRIRDRPPRLPRPRPRPQKNPRP | -0.431
80 | RRIRTRPPRLPRPRPRPWGPPRP | -0.0265
81 | RRIRDRPPRLPRPRPRPRDLPRP | 0.139
82 | RRIRGRPPRLPRPRPRPFYYPRP | 0.07
83 | RRIRCRPPRLPRPRPRPIDLPRP | -0.271
84 | RRIRTRPPRLPRPRPRPKLCPRP | 0.0416
85 | RRIRIRPPRLPRPRPRPSFSPRP | -0.357
86 | RRIRQRPPRLPRPRPRPYFPPRP | -0.283
87 | RRIRGRPPRLPRPRPRPTDFPRP | 0.161
88 | RRIRDRPPRLPRPRPRPGYSPRP | -0.591
89 | RRIRIRPPRLPRPRPRPPNGPRP | -0.291
90 | RRIRNRPPRLPRPRPRPWVTPRP | -0.0711
91 | RRIRDRPPRLPRPRPRPLKIPRP | -0.297
92 | RRIRIRPPRLPRPRPRPFMFPRP | -0.745
93 | RRIRWRPPRLPRPRPRPCWWPRP | 0.22
94 | RRIRQRPPRLPRPRPRPTYMPRP | -0.106
95 | RRIRHRPPRLPRPRPRPNNMPRP | -0.674
96 | RRIRGRPPRLPRPRPRPMHPPRP | -0.104
97 | RRIRKRPPRLPRPRPRPYPPPRP | -0.289
98 | RRIRIRPPRLPRPRPRPWQNPRP | 0.00641
99 | RRIRWRPPRLPRPRPRPTCPPRP | 0.187
100 | RRIRNRPPRLPRPRPRPARMPRP | 0.991

Row | Sequence | shrunken log2 fold change
101 | RRIRIRPPRLPRPRPRPWASPRP | 0.00397
102 | RRIRGRPPRLPRPRPRPHKKPRP | -0.108
103 | RRIRSRPPRLPRPRPRPPSMPRP | 0.13
104 | RRIRNRPPRLPRPRPRPQSAPRP | -0.073
105 | RRIRDRPPRLPRPRPRPTCSPRP | 0.112
106 | RRIRYRPPRLPRPRPRPACYPRP | -0.553
107 | RRIRDRPPRLPRPRPRPMIWPRP | -0.0952
108 | RRIRPRPPRLPRPRPRPAYHPRP | -0.129
109 | RRIRVRPPRLPRPRPRPDIAPRP | -0.211
110 | RRIRPRPPRLPRPRPRPDQRPRP | 0.015
111 | RRIRGRPPRLPRPRPRPGKTPRP | 0.0643
112 | RRIRTRPPRLPRPRPRPGDWPRP | 0.73
113 | RRIRWRPPRLPRPRPRPVYTPRP | -0.242
114 | RRIRQRPPRLPRPRPRPDHLPRP | 0.0112
115 | RRIRHRPPRLPRPRPRPQTSPRP | -0.264
116 | RRIRHRPPRLPRPRPRPVKGPRP | -0.079
117 | RRIRGRPPRLPRPRPRPAGWPRP | 1.15
118 | RRIRKRPPRLPRPRPRPGSVPRP | 0.162
119 | RRIRPRPPRLPRPRPRPDKQPRP | 0.0524
120 | RRIRSRPPRLPRPRPRPSNIPRP | -0.484
121 | RRIRCRPPRLPRPRPRPMIPPRP | -0.231
122 | RRIRTRPPRLPRPRPRPREHPRP | 0.327
123 | RRIRWRPPRLPRPRPRPPCVPRP | 0.301
124 | RRIRQRPPRLPRPRPRPMQNPRP | -0.324
125 | RRIRSRPPRLPRPRPRPFAEPRP | 0.256
